Measured values from the nanobody polyreactivity screen of Harvey et al. (2022).

experiment: yeast display, Sf9 membrane polyspecificity reagent, FACS + sequencing; frameworks hold sequencing errors
Method in brief: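 A synthetic nanobody library was expressed on Saccharomyces cerevisiae BJ5465 by galactose induction for 36–48 hours. The library was stained for 1 hour at 4 °C with 10% biotinylated, detergent-solubilized Sf9 membrane reagent and enriched with streptavidin microbeads before FACS. Low and high (top ~1%) gates were set on anti-HA fluorescence for expression and streptavidin fluorescence for reagent binding, and each polyreactivity label reflects the gate of origin.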

| Sequence | polyreactivity (PSR sort gate) |
| --- | --- |
| QVQLVESGGGLVQAGGSLRLRGAASGSTFGPNAMGWYRPAPGKEREFVASISWRGGRTYYADSVKGRFTISRDNAKNTVYLQMNSLNPEDTAVYYCAAVSYPAVYGFDYWGQGTQVTVSS | high polyreactivity |
| QVQLVESGGGLVQAGGSLRLRSAASGSIIPEYVMGWYRQAPGKERELVAAISWSGGSTYYADSVKGRFTISRDNAKNTDYLQMNSLKPEDTAVYYCNRVPSWRIDYDYWGQGTQVTVSS | low polyreactivity |
| QVQLVESGGGLVQAGGSLRLSCAAAGFIFRYYAMGWYRPAPGKVRELVAAITNSGVSTYYADSVKGRFTISRDNAKNTVYLQMNRLKPEDTAVYYCAATYRTRTSQYDYWGQGTQVTVSS | high polyreactivity |
| QVQLVESGGGLVQAGGSLRLSCAAAGITFTVYAMGWYRPAPGKERELVAAISQSGGSTYYADSVKGRFTISRDNAKNTVSLQMNSMKPEDTAVYSCNADTVWVPYRTYIPFDYWGQGTQVTVSS | low polyreactivity |
| QVQLVESGGGLVQAGGSLRLSCAAAGRIFGINALGWYRQAPGKERELVAAISWRSGSTYYADSVKGRFTISRDNAKNTVYLQMNSLKPEATAVYYCAARYFVRNYYQNDYWGQGTQVTVSS | low polyreactivity |
| QVQLVESGGGLVQAGGSLRLSCAAAGRSFGRNAMGWYRQAPGKERELVAAISTSSGSTYYADSVKGRFTISRDNAKNTVYLQMNSLKPEDTAGYYCAARDDSYRRYEYGYWGQGTQVTVSS | high polyreactivity |
| QVQLVESGGGLVQAGGSLRLSCAAAGRTFGDYDMGWYRQAPGKERELVAAITSDGTTYYADYVKGRFTISGDNAKNTVYLQMNSLKPEDTAVYYCAADYWYVSWYDYWGHGTQVTVSS | low polyreactivity |
| QVQLVESGGGLVQAGGSLRLSCAAAGSIFRINDMGWYRQATGKERELVAAITFSGGSTYADSVKGRFTISRDNAKNTVYLQMNSLKPEDTAVYYCNADGAYWTDYYLYDYWGHGTQVTVSS | low polyreactivity |
| QVQLVESGGGLVQAGGSLRLSCAACGFIFYYNAMGWYRQAHGKVRELVAAISSSAGSTYYADSVKGRFTISRDNAKNTVYLQMNSLKPEDTAVYDCAASRPPNTSNTGYGSWGQGTQVTVSS | low polyreactivity |
| QVQLVESGGGLVQAGGSLRLSCAACGFTFQYYAMGWYRQAPGKVRELVATITTSGGNTYYADSVKGRFTISRDNAKNTVYLQMNSLKPEDTAVYYCAARSYRASSRGYVYWGQGTQVTVSS | high polyreactivity |
| QVQLVESGGGLVQAGGSLRLSCAACGITFPTNMGWYRQAPGKERELVAAIRLSGGSTSYADSVKGRFTISRDNAKNSVYLQMTSLKPEDTAVSSCAAGGYPGGEDYWGQGTQVTVSS | low polyreactivity |
| QVQLVESGGGLVQAGGSLRLSCAACGLTITFYAMGWYRQAPGKERELVAAISRSGGSTYYADSVKGRFTISRDNAKNTVYLQMNSLKPEVTAVYYCAVVGGYYEFDYEGDYWGQGTQVTVSS | low polyreactivity |
| QVQLVESGGGLVQAGGSLRLSCAACGRIFDRNAMGWYRQAPGKERELVAAITRSGGRTYYADSVKGRFTISRDNAKNSVYLQMNSLKPEDTAVYYCNRGYPRSVVHYNSWGQGTQVTVSS | low polyreactivity |
| QVQLVESGGGLVQAGGSLRLSCAACGRILTYYAMGWYRQAPGKERELVAAISWRAGSTYYADSVKGRFTISRDNAKNTVYLQMNSLKPEDTAVYYCAAKPYYIPTRTYSHYNYWGQGTQVTVSS | high polyreactivity |
| QVQLVESGGGLVQAGGSLRLSCAACGRTFYNYAMGWYRQAPGKERELVAAITRGGSTYYADSVKGRFTISRDNAKNTVYLQMNSLKPEDTAVYYCNAVFPYEHEEYDYWGQGTQVTVSS | high polyreactivity |
| QVQLVESGGGLVQAGGSLRLSCAACGSIFYLNAMGWYRQAPGKERELVAAITNGGSTYADSVKGRFTISRDNAKNTVYLQMNSLKPEDTAVYYCATRSWELGDYWGQGTQVTVSS | low polyreactivity |
| QVQLVESGGGLVQAGGSLRLSCAACGSTFHWNTMVWYRQAPGKERELVAAITYSGGRTYYADSVKGRFTISRDNAKNTVYLQMNSLKPEDTAVYYCAARYWRGSVTSYYYWGQGTQVTVSS | high polyreactivity |
| QVQLVESGGGLVQAGGSLRLSCAACGSTFNGYTMGWYRQAPGKERELVAAISKSGGRTYYADSVKGRFTISRDNAKNTVYLQMNSLKPEDTAVYYCNKLTQSSYGWGQGTQVTVSS | high polyreactivity |
| QVQLVESGGGLVQAGGSLRLSCAACGSTFPGNAKGWYRQAPGKERELVAAISSSGGITYYADSVKGRFTISRDNAKNTVYLQMNSLIPEDTAVYYCSWGHGTQVTVSS | low polyreactivity |
| QVQLVESGGGLVQAGGSLRLSCAACGSTFRYNTMGWYRQATGTEREVVAAISSAATTNYADSVKGRFTISRDNAKNTVYLQLNSLNPEDTALYYCARGYSWSVGYPRVQDMDYWGQGTQVTVSS | high polyreactivity |
| QVQLVESGGGLVQAGGSLRLSCAAFGRIFQYYAMGWYRQAPGKERELVAAITRSGGSTYYADSVKGRFTISRDNAKNTVYLQMNSLKPEDTAVYYCAAYSRYTVREGYDYWGQGTQVTVSS | high polyreactivity |

| Sequence | polyreactivity (PSR sort gate) |
| --- | --- |
| QVQLVESGGGLVQAGGSLRLSCAAPGNTFQYYAMGWSRQAPGKEREFVAAISRRGGSTYYADSVKGRFTISRDNAKNTVYLQMNSLKPEDTAVYYCNKVIFLSQSSYSFLYAYDYWGQGTQVTVSS | high polyreactivity |
| QVQLVESGGGLVQAGGSLRLSCAAPGSIFYQNAMGGYRQAPGKERELVAAISRSGGSTYYADSVKGRFTISRDNAKNTVYLQMNSLKPEDTAVYYCAARISRQRSYSRDYWGQGTQVTVSS | high polyreactivity |
| QVQLVESGGGLVQAGGSLRLSCAASAAIFTKNAMGWYRQAPAKERELVAAITGSGASTYYADSVKGRFTISRDNAKNTVYLQMNSLKPEDTAVYYCNTDSPYGWEGEFDYWGQGTQVTVSS | high polyreactivity |
| QVQLVESGGGLVQAGGSLRLSCAASAFIFGHYAMGWYRQAPGKERELVAGINSSGGSTHYADSVKGRFTISRDNAKKTVYLQMNSLKPEDTAVYYCAVAARTRARVLYGYDYWGQGTQVTVSS | low polyreactivity |
| QVQLVESGGGLVQAGGSLRLSCAASAFIFSRNAMGWYRQAPGKDRELVAAISLRGGSTSYADSVKGRFTISRDTAKNTVYIQMNSLKPEDTAVYYCAKYDRNTYGYWGQGTEVTVSS | low polyreactivity |
| QVQLVESGGGLVQAGGSLRLSCAASAFIIHRYAMGWYRQAPGKERELVAVITSGGGSTYYADSVKGRFTISRDNAKNTVYLQMNCLKAEDTAVYYCAAFQPDNSRYRYDYWGQGTQVTVSS | high polyreactivity |
| QVQLVESGGGLVQAGGSLRLSCAASAFILYFNAMGWYRQAPGKESDLVAAISRGDGYTYADSVKGRFTISRDNAKNTVYLLMNRLNPEDTEVYYCNAGLGVVVTLYVGSGYDSWGHGTQVTVSS | low polyreactivity |
| QVQLVESGGGLVQAGGSLRLSCAASAGIFVVYGMGWYRQAPGKERELVAAISWRGGSTYYADSVKGRFTISRDNAKNTVYLQMNSLKPEDTAVYYCAADQYYGGYDYWGQGTQVTVSS | low polyreactivity |
| QVQLVESGGGLVQAGGSLRLSCAASAIILQRNDMGRYRQAPGKERELVANIRDGGITFADSVKGRFTISRDNAKNTVYLQMNSLKPEDTAVYYCARDDTSPGYGDQSSNAAYYYWGQGTQVTVSS | low polyreactivity |
| QVQLVESGGGLVQAGGSLRLSCAASAMAWYRQAPWKERELVATISATGGSTYYADSVKGRFTISRDNAKNTVYLQMNSLKPEDTAVYYCNKDPLVFVYWGQGTQVTVSS | low polyreactivity |
| QVQLVESGGGLVQAGGSLRLSCAASAMGRYRQAPGKERELVAGITSSGGSTYYADSVKGRFTISRDNAKNTVYLQMNSLKPEDTAVYYCNADNAGYGYWSYPYYYWGQGTQVTVSS | low polyreactivity |
| QVQLVESGGGLVQAGGSLRLSCAASARIFGWNSMGWYRQAPGKERELVAAISWRGGSTYYADSVKGRFTISRDNAKNTVYLQMNSLKPEDTAVYYCNALYTRYVSQWFGYWGEGTQVTVSS | high polyreactivity |
| QVQLVESGGGLVQAGGSLRLSCAASARIFSQNAMGWYRQAPGKERELVAVISWSGVSTSYSDSVKGRFTISRDNAKNTVYLQMNSLKPEDTAVYYCAARRFYYYSRYPGYNSWGQGTLVTVSS | high polyreactivity |
| QVQLVESGGGLVQAGGSLRLSCAASARTFPWYAMGLYRQAPGKERELVAAISWTGGSTYYADSVKGRFTISRDNAKHTVYLQMNSLKPEDTAVYYCAASPWYLKYEYWGQGTQVTVSS | low polyreactivity |
| QVQLVESGGGLVQAGGSLRLSCAASARTFVWNAMGWYRQAPGKERELVAAIDWSGGSTYYADSVKGRFTISRDNAKNTVYFQMYSLKPEDTAVYYCAVAVWNGSEYWGQGSQVTVSS | high polyreactivity |
| QVQLVESGGGLVQAGGSLRLSCAASASIFYRNAMGWYRQAPGKERELVAGITTRGGSTYYADSVKGRFTISRDNAKNTVYLQMNSLNPEDTAVYYCNRRFPIYGSRFGYYYWGQGTQVTVSS | high polyreactivity |
| QVQLVESGGGLVQAGGSLRLSCAASASINSNYVMGWNRQAPGKERELVAAITRRGGRTYYADSVKGRFTISRDNAKNTVYLQMNSLKPEDTAVYYCAAERYPEAGSPYGTAEMDYWGQGTQVPVSS | low polyreactivity |
| QVQLVESGGGLVQAGGSLRLSCAASASTFTINAMGWYRQAPGKERELVAAISRSGGSTFYADSVKGRFTISRDNAKKTVYLQMNSLKPEDTAVYYCAARGVNRQGFNYWGQGTQVTVSS | high polyreactivity |
| QVQLVESGGGLVQAGGSLRLSCAASASTLNGNAKAWYRQAPGKDRELVAAITTSGGSTYYADSVKGRFTISRDNAKNTDSLQMHSQNPEDTAVYYCNKLIGRRYGWANGYDYWGQGTQVTVSS | low polyreactivity |
| QVQLVESGGGLVQAGGSLRLSCAASEGWYRQAPGKERELVAAISYIGGSTYYADSVKGRFTISRDNAKNTVYLQMNSLKPEDTAVYYCAKGYPDPQWGGVLAYDYWGQGTQVTVSS | low polyreactivity |
